Experimental data published in article PMC6420079.

Biological target: Fur (Salmonella enterica serovar Typhimurium …, UniProt A0A0H3NJ13 1-150)
Assay: fluorescence anisotropy

B1: furbox (dsDNA)
DNA 1: GGGGATAATGATAATCATTATCGGG
DNA 2: CCCGATAATGATTATCATTATCCCC
  Kd: 56 nM
